Source: the nanobody polyreactivity screen of Harvey et al. (2022)

Assay: yeast display, Sf9 membrane polyspecificity reagent, FACS + sequencing; frameworks hold sequencing errors
Outline: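 Polyreactivity labels are assigned by the sorting gate from which each nanobody was recovered. The gates were low and high (top ~1%), set on anti-HA fluorescence for expression and streptavidin fluorescence for reagent binding. Before sorting, galactose-induced (36–48 hours) yeast display cells were stained for 1 hour at 4 °C with 10% biotinylated, detergent-solubilized Sf9 membrane reagent.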

Sequence | polyreactivity (PSR sort gate)
QVQLVESGGGLVQAGGSLRLSCAASGRTFWFYTMGWYRQAPGKERELVADIRRSGGSTYYADSVKGRFTISRDNAKNTVYLQMNSLKPEDTAVYYCASDPRRLAAGYTRYVYWGQGTQVTVSS | high polyreactivity
QVQLVESGGGLVQAGGSLRLSCAASGSIFASNTMGWSRQATGKERELVAGITKIGSSTYYADSVKGRFTISRDNAKNTVYLQMNSLKPEDTEVYYCNAYGPNIYSSRYDYWGQGTQVTVSS | low polyreactivity
QVQLVESGGGLVQAGGSLRLSCAASGSIFYDYEMGWYRQAPGKERELVASINTGGSTNYADSVKGRFTISRDNAKNTVYLKMNSLKPEDTAVYYCNAPRGYPTSANHLDYWGQGTQVTVSS | low polyreactivity
QVQLVESGGGLVQAGGSLRLSCAASGNILIGNVMGWYRQAPGKERELVAAITSGGDTYYADSVKGRFTISRDNAKNTVNLQMNSLKPEDTAVYYCAADRPGQPKYEYWGQGTQVTVSS | low polyreactivity
QVQLVESGGGLVQAGGSLRLSCAASGFTFYPYAMGWYRQAPGKERELVAAITSGGRTNYADSVKGRFTISRDNAKNTVYLQMNSLKPEDTAVYYCNTVSWWGRNYQDEYYYWGQGTQVTVSS | high polyreactivity
QVQLVESGGGLVQAGGSLRLSCAASGRTFLLYAMGWYRQAPGKERELVASITSDGRTNYADSVKGRFSISRDNAKNTVYLHMNSLKPEDTADYYCATVGKVHHRLVAMDYWGQGTQVTVSS | low polyreactivity
QVQLVESGGGLVQAGGSLRLSCAASGFTFDYYTMGWYRQAPGKEREFVAAITWNGGTTNYADSVKGRFTISRDNAKYTVYLQMNSLKPEDTAVYYCAATAYWYFSNDSGRSYDYWGQGTQVTVSS | low polyreactivity
QVQLVDSGGGLVQAAGSLRLSCAASGSTFVTYAMGGYRTAPGKERELVAAISSGAGTNYADSVKGRFTISRDNAKNTVYLQMNSLKPEDTAVDYCAADKAVGDSTRYYYWGQGTQVTVSS | low polyreactivity
QVQLVESGGGLVQAGGSLRLSCAASGSTFDSYAMGWYRQAPGKERELVAVINSGGSTNYADSVKGRFTISRDNAKNTVYLLMNSLKPEDTAVYYCSAEERYRWHVVGWGYWYDYWGQGTQVTVSS | low polyreactivity
QVQLVESGGGLVQAGGSLRLSCAASGSIFDVNAMGWYRQAPGKERELVAAISQRGTRTYYADSVKGRFTISRDNAKNTVYLQMNSLKAEDTAVYYCNRGGWRQYDSWGQGTQVTVSS | high polyreactivity
QVQLVESGGGLVQAGGSLRLSCAASGFIFTGNVMGWYRQGPGKERELVAGITYTSGSTYYADSVKGRFTISRDNAKNTVYLQMNSLKPEDTAVYYCAAEVYVPDYFQHKFDVEYEYWGLGTQVTVSS | low polyreactivity
QVQLVESGGGLVQAGGSLRLSCAASGRIFDVYAMGWYRQAPGKERELVATITGSGGGTYYADSVKGRFTISRDNAKNTVYLQMNSLKPEDSEVYYCASYYYPNYAYYVSNVVYDYWVQGTQVTVSS | low polyreactivity
QVQLVESGGVLVQAGGSLRLSCAASGSIFYVNTMGWYRQAPGKDRELVADISSGDSTYYADSVKGRFTISRDNAKNTVYLQMNSLKPEDTAVFYCNADVYSWVSGKEGDYWGQGTQVTVSS | low polyreactivity
QVQLVESGGGLVQAGGSLRLSCAASGRTFYVYAMGWYRQAPGKERELVATITSRGGRTYYADSVKGRFTISRDNAKNTVYLQMNSLKPEDTAVDYCNAAWWKVSYVRQKYFYWGQGTQVTVSS | high polyreactivity
QVQLVESGGGLVQAGGSLRLSCAASGFTFCDYAKGWYRQATGKERELVAAISDNDGSTDYADSVKGRFTISRDNAKNTVYLQMTRLKPEDSAVYYCNAESELPSKEGDYWGLGTQVTVSS | low polyreactivity
QVQLVESGGGLVQAGGSLRLSCAASGSIFGRYAMGWYRQAPGKERELVASIYSSGSTYYADSVKGRFTISRDNAKNTVYLQMNSLKPEDTAVYYCAAQISVWGYRVGYTKYYYWGQGTQVTVSS | high polyreactivity
QVQLVESGGGLVQAGGSLRLSCAASGSTFSFYAMGWYRQAPGKERELVAAISRSGGSTFYADSVKGRFTISRDNAKNTVYLQMNSLKPEDTAVYYCAAYGGLQSRYYYWGQGTQVTVSS | high polyreactivity
